B1: recombinant mouse interleukin 10 (protein, UniProt P18893 19-178, looked up)
Interleukin-10: SRGQYSREDNNCTHFPVGQSHMLLELRTAFSQVKTFFQTKDQLDNILLTDSLMQDFKGYLGCQALSEMIQFYLVEVMPQAEKHGPEIKEHLNSLGEKLKTLRMRLRRCHRFLPCENKSKAVEQVKSDFNKLQDQGVYKAMNEFDIFINCIEAYMMIKMKS
notes: recombinant mouse interleukin 10, Mw ~36 kDa, from R&D Systems
B2: released IL-10: IL-10 released from TNPs (obtained at 48 h post-release) (protein, UniProt P18893 19-178, looked up)
Interleukin-10: B1 Interleukin-10
modifications: released from nanoparticles

Experiments:
[1] = In vitro release of proteins from TNPs in PBS; assay type: physicochemical; settings: 100 rpm, 37° C.
Protocol: The protein-loaded nanoparticles were dispersed in 1 mL of phosphate-buffered saline solution (PBS) and subsequently incubated in a shaking incubator at 100 rpm and 37° C. At each time point, the protein released from nanoparticles was isolated using Amicon Ultra-0.5 centrifugal filters (MWCO 50 kDa) at 5,000 rpm for 2 min at 20° C. Then the protein-loaded nanoparticles were resuspended in PBS and incubated in the same manner until the last defined time point. The amount of released protein at each time point was measured at 450 nm using an ELISA kit. The measurements were done in triplicate.

[2] = Protein encapsulation efficiency and loading content (solvent-free loading, ELISA of unloaded protein); assay type: physicochemical; settings: loaded into TNPs at 4° C. without organic solvents
Protocol: The protein encapsulation efficiency and the loading content were determined by separation of unloaded proteins from TNPs using Amicon Ultra centrifugal filters (MWCO 100 kDa). Unloaded proteins were measured using a protein ELISA kit and Synergy HT multi-mode microplate reader (BioTek Instruments Inc., Winooski, Vt., USA) at […] absorbance.

[3] = system: intracellular ROS in LPS-stimulated RAW 264.7 macrophage cells; experiment: Inhibition of intracellular ROS in LPS-stimulated macrophages (DCFH2-DA); assay type: cell-based
Protocol: To analyze the inhibitory effect of IL-10 on intracellular reactive oxygen species (ROS) generated from lipopolysaccharide (LPS)-stimulated macrophage cells, RAW 264.7 macrophage cells were seeded on a 24-well tissue culture plate at a density of 2×10^4 cells per well and then allowed to grow for 12 h. The cells were pre-treated with IL-10 at various concentrations (1 to 100 ng/mL) for 2 h and 24 h at 37° C. Then the medium was replaced with LPS solution (100 ng/mL), and the cells were further incubated for 4 h and 24 h at 37° C. The cells were then washed with PBS and incubated with 10 μM ROS detection reagent (DCFH2-DA) for 90 min at 37° C. Fluorescence intensity was measured using a Synergy HT multi-mode microplate reader with ex/em 485/528 nm filter (BioTek Instruments Inc).
In order to determine the bioactive integrity of IL-10 released from or loaded into TNPs, cells seeded on a 24-well tissue culture plate (2×10^4 cells/well) were pre-treated with native IL-10, IL-10 released from TNPs (obtained at 48 h post-release), or IL-10-loaded TNPs at 50 ng/mL concentration for 24 h at 37° C. Next, the medium was replaced with LPS solution (100 ng/mL), and the cells were stimulated with LPS for 24 h at 37° C. After washing with PBS, intracellular ROS was measured using the detection method mentioned above. […]

[4] = mouse, in vivo, iv
Protocol: At 5 min, 30 min, 1 h, 2 h, 4 h, 8 h, 12 h, and 24 h post-injection, blood samples (0.5 mL) were drawn for serum protein concentration analysis. Next, the blood samples were placed at 4° C. overnight to allow the formation of a blood clot and centrifuged under 2,000×g for 15 min at 4° C. The serum samples were stored at −80° C. and analyzed using an ELISA kit. […] The AUC (area under the serum concentration-time curve) and AUMC (area under the first moment curve) were calculated using the trapezoidal rule.

sIL-1Ra gene expression = experiment: qPCR of sIL-1Ra in LPS-stimulated macrophage cells; assay type: cell-based; settings: LPS 500 ng/mL 4 h, then IL-10 20 ng/mL 2 h
Protocol: (§1) Macrophage cells were seeded on a 6-well tissue culture plate (5×10^5 cells/well) and maintained for 12 h. The cells were treated with LPS (500 ng/mL) for 4 h, the medium was replaced with IL-10 solution (native IL-10 or released IL-10 at 20 ng/mL), and the cells were incubated for 2 h at 37° C. Next, the cells were washed with PBS and harvested by scraping, followed by centrifugation at 2,000 rpm for 5 min at 4° C. The isolated cell pellets were used to prepare the total RNA using the RNeasy® Mini Kit (QIAGEN, Valencia, Calif., USA) according to the manufacturer's protocol. For the preparation of cDNA, the extracted RNA solution (1 μg/5 μL) was then mixed with 0.5 μL of Oligo (dT) 15 primer (Promega, Madison, Wis., USA) and then reacted at 70° C. for 5 min using the Bio-Rad iCycler PCR Thermal Cycler (Bio-Rad Laboratories, Inc., Hercules, Calif., USA). The mixture was subsequently placed on ice for 5 min and mixed with various components to a final volume of 20 μL: nuclease-free water (5.6 μL), 10 mM dNTP mixture (Promega, 1 μL), 25 mM MgCl2 (Promega, 2.4 μL), ImProm-II™ reverse transcriptase (Promega, 1 μL), ImProm-II™ 5× reaction buffer (Promega, 4 μL), and RNasin® Plus RNase inhibitor (Promega, 0.5 μL). […] The relative gene expression levels were calculated using the ΔΔCt method and normalized to the expression of the reference gene (β-Actin). […]

[5] = system: DNFB-induced allergic contact dermatitis; experiment: DNFB-induced allergic contact dermatitis (ACD) model; assay type: in vivo, C57BL/6 mice; settings: 100 μg IL-10/kg i.v. 2 h before DNFB, ear thickness at 36 h
Protocol: C57BL/6 mice were administered i.v. saline, TNPs, IL-10, or IL-10-loaded TNPs (100 μg IL-10/kg). At 2 h post-injection, a 0.3% v/v solution of DNFB (2,4-dinitro-fluorobenzene) in acetone was applied the mice to the dorsal and ventral aspects of ear skin. Ear thickness was measured using an engineer's micrometer (Mitutoyo) at 36 h. The change of ear thickness is calculated as the difference between the treated ear and the contralateral ear treated with acetone alone.
Ears were fixed in a 10% formalin solution, embedded in paraffin, and submitted for histological analysis by haematoxilin and eosin staining to the Harvard Rodent Histopathology Core.
For ear-skin digestion, the dorsal and ventral aspects of the ear were mechanically separated before mincing and placing into a digestion mix consisting of DMEM (Gibco) supplemented with HEPES (Invitrogen), 2% FCS, 200 μg/mL Liberase TM (Roche), 10 μg/mL DNase I (Roche), and 5 mg/mL Collagenase D (Roche). Ears were digested for 80 minutes at 37° C. in gentleMACS tubes (Miltenyi) with gentle agitation in freshly prepared digestion mix. After enzymatic digestion, the mixture was processed using a gentleMACS homogenizer (Miltenyi) in order to obtain a cell suspension, which was then filtered through a 70 μm cell strainer (BD). Cells were then resuspended in FACS buffer for analysis. […]

[6] = system: STAT3 and phosphorylated STAT3 (P-STAT3 at Tyr705); experiment: Western blot of STAT3 and P-STAT3 in unstimulated macrophage cells; assay type: cell-based; settings: 20 ng/mL, 24 h; for Total levels of STAT3: β-Actin reference
Protocol: To determine the bioactivity of IL-10 in unstimulated cells, macrophage cells seeded on a 6-well tissue culture plate (5×10^5 cells/well) were treated with IL-10 (native IL-10 or released IL-10 at 20 ng/mL) and incubated for 24 h at 37° C. Then the cells were washed with ice-cold PBS three times and harvested by scraping into Eppendorf tubes, followed by centrifugation at 12,000 rpm for 5 min at 4° C. For protein extraction, the cells were lysed in 200 μL of protein extraction reagent (Fisher Scientific, Pittsburgh, Pa., USA) supplemented with protease inhibitor cocktail and phosphatase inhibitor cocktail (Sigma-Aldrich), and then centrifuged at 12,000 rpm for 10 min at 4° C. to remove the nuclei. Next, protein concentration was measured using a Coomassie Plus-Bradford™ assay with bovine serum albumin as the protein standard. The cell lysates (with 30 μg of protein) were mixed with 4× Laemmli Sample Buffer (Bio-Rad), and the mixture was boiled for 7 min at 95° C. […] Then the membranes were blocked with Tris-Buffered Saline-0.1% Tween 20 (TBST) solution containing 5% BSA for 2 h at 4° C. on a shaker. The primary antibodies (1:1000 dilutions) in TBST with 3% BSA were incubated with the membranes overnight at 4° C. on a shaker. After that, the membranes were washed with TBST solution four times (each 10 min) and then incubated with secondary antibody (1:10,000 dilutions) in TBST with 3% BSA for 1 h at room temperature on a shaker. Finally, the membranes were washed with TBST solution five times and visualized using Amersham ECL prime western blotting detection reagent (GE Healthcare Life Sciences, Pittsburgh, Pa., USA). The primary and secondary antibodies used in this study were from Cell Signaling Technology (Danvers, Mass., USA) as follows: β-Actin (8H10D10) Mouse mAb, Stat3 (124H6) Mouse mAb, and Phospho-Stat3 (Tyr705) (3E2) Mouse mAb as a primary antibody, and anti-mouse IgG (HRP-linked) antibody as a secondary antibody.

[7] = system: TNF-α and IL-12 gene expression; experiment: qPCR of proinflammatory cytokines in LPS-stimulated macrophage cells; assay type: cell-based; settings: LPS 500 ng/mL 4 h, then IL-10 20 ng/mL 2 h
Protocol: as §1

Molecule	Release profile from TNPs [1]	Encapsulation efficiency [2] [%]	Loading content [2] [wt %]	Inhibitory effect on ROS production, dose response ([3]; IL-10 1-100 ng/mL, LPS 100 ng/mL, pre-treatment)	Clearance [4] [mL/min/kg]	Improvement of half-life versus IL-10 alone [4] [fold]	T1/2 terminal [4] [min]	Vss [4] [L/kg]	Increase of sIL-1Ra mRNA expression compared to LPS alone (sIL-1Ra gene expression)	Ear swelling [5]	P-STAT3 (Tyr705) level [6]	Total levels of STAT3 [6]	Inhibitory effect on ROS production, pre-treatment (IL-10→LPS) ([3]; 50 ng/mL IL-10 24 h, then 100 ng/mL LPS 24 h)	Reduction of TNF-α and IL-12 expression [7]
lysozyme: lysozyme from chicken egg whites, model protein loaded into TNPs (1:20)	controlled-release kinetics up to a week	90	1.8	–	–	–	–	–	–	–	–	–	–	–
B1	–	–	–	dose-dependent inhibition effect	32.9928	5.9	15	0.70727	1.5 fold	reduction of ear swelling compared to the saline-treated control	clear band	slightly increased	–	–
B2	–	–	–	–	–	–	–	–	effects identical to those of the native protein	–	almost identical	almost identical	almost no statistical difference between the released IL-10 and native IL-10	ca. 2.5 fold
